Reference: patent publication CN107540747A

Biological target: 人DLL4分子 (full-length human DLL4 on the cell surface) (human) (UniProt Q9NR61)
Assay: indirect immunofluorescence, flow cytometry on CHO/DLL4 cells

Chain of UniProt Q9NR61 (Q9NR61 27-685): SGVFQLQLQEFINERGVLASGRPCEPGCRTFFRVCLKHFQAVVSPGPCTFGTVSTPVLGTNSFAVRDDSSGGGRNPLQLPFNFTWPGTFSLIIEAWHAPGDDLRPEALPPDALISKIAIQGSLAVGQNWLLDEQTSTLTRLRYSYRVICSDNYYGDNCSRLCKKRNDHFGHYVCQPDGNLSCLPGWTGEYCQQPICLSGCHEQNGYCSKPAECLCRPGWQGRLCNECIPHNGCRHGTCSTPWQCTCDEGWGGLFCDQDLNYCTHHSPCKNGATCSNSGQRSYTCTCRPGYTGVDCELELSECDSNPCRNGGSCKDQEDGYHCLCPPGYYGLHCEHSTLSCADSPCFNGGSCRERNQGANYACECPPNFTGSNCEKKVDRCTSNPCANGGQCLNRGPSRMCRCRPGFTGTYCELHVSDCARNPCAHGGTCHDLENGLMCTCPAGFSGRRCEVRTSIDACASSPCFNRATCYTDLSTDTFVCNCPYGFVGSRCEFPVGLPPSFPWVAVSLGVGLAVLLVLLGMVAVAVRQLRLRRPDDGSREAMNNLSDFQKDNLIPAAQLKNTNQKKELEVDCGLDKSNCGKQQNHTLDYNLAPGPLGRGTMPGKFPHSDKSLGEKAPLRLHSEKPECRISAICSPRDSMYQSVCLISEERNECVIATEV

B1: 抗人DLL4单克隆抗体6F12 (antibody, mouse IgG2b, V domains shown)
VH: EVHVKQSGPELVKPGASVKMSCKASGYTFTSYLLHWVKQKPGQGLEWIGYIIPYNDGTRYNEKFKGKATLTSDKSSNTAYMELSSLTSEDSAVYYCAREGTGTGAFDYWGQGTSLTVSS
VL: DIVLTQSPAIMSASPGEKVTMTCRASSSVNYMYWYQQKPGSSPRLLIYDTSNLASGVPVRFSGSGSGTSYSLTISRMEAEDAATYYCQQWSSYPYTFGGGTKLEIK
  效价 (titer (1:x dilution)): > 10000
